Measured values published in publication PMC12079263.

Molecular target: Rab11 (1–173, Q70L) with 6 × His, bound to GTP-γ-S (UniProt P62491)
Assay: SPR

Substance: p14^1–69 protein (p14 FAST protein of reptilian reovirus, residues 1-69) reconstituted into bicelles (domain or fragment)
- Kd: 2130 nM
